The text below walks through data of patent US20250042997A1 (PHYLAXIS BIOSCIENCE, published 2025).

For test [1], the target named is T1, human Siglec-8 (full-length, on transfected CHO or 293 cells, or native on human eosinophils) (human, UniProt Q9NYZ4 17-499). Briefly: flow cytometry on 293 cells transiently transfected with full-length human Siglec-8; A647 anti-human Fc-gamma secondary; median fluorescence, nonlinear fit; table under the graph. Here is the method: (§1) The binding of the lmG2 and humanized versions (further including Siglec8 hzG2v14), formatted as monomeric VHH-hIgG1 fusions proteins using a non-dimerizing human IgG1 Fe variant region lacking a hinge Fe NNT, was assessed by flow cytometry using 293 cells that had been transiently transfected with full-length human Siglec-8 and detected with an anti-human AF647 secondary antibody. Binding specificity was assessed using untransfected 293 cells as a control. For the binding assays, Siglec-8 293 cells or untransformed 293 cells were seeded in a 96 well U-bottom plate with 50 k cells/well in FACS buffer and incubated at 4° C. with a titration of anti-Siglec8-VHH-NNT for 30 minutes. After washing, the plates were incubated with an A647-conjugated anti-human Fcγ specific secondary antibody diluted 1:10,000 in FACS buffer for 20 minutes at 4° C. The plates were washed, and binding was determined by flow cytometry quantitating anti-human A647 median fluorescent intensity. The maximum specific binding (Bmax) and affinity (Kd) for was determined from the flow cytometry binding data using a nonlinear fit model.

The target of test [2] is T1, human Siglec-8 (full-length, on …). Briefly: flow cytometry on 293 cells transiently transfected with full-length human Siglec-8; A647 anti-human Fc-gamma secondary; median fluorescence, nonlinear fit; table under the graph (Kd column without unit, concentration axis nM Ab). Here is the method:
as §1
On the technique in general: Flow cytometry measures light scatter and fluorescence of single cells or particles in a stream.

The target is the same in test [3]. Description: flow cytometry on human eosinophils (CD16- CCR3+) from whole blood; anti-human AF647 secondary; MFI. The text has this: To determine if increasing the valency of Siglec-8 antibodies could enhance agonist activity, the parental llama B12, D1 and E2 VHH sequences were used to generate tetravalent (Tet-B12 (cx8467; SEQ ID NO:50 linked to an Fe), Tet-D1 (cx8469; SEQ ID NO:56 linked to an Fe), and Tet-E2 (cx8463; SEQ ID NO:62 linked to an Fc)) and hexavalent (Hex-B12 (cx8466; SEQ ID NO:51 linked to an Fe), Hex-D1 (cx8523; SEQ ID NO:57 linked to an Fe), and Hex-E2 (cx8522; SEQ ID NO:165 linked to an Fc)), Siglec8-VHH-Fc antibodies linked to a reduced effector function xELL human Fc region via linker 2. The bivalent (Bi-B12 (cx8982), Bi-D1 (cx8983) and Bi-E2 (cx8984)), tetravalent, and hexavalent Siglec8-VHH-Fc antibodies were assessed by flow cytometry for binding to eosinophils (CD16⁻ CCR3⁺). Cells were isolated from whole blood by centrifugation, washed twice with 2% FBS PBS, and resuspended in 1×RBC lysis buffer for 10 minutes at room temperature (RT), washed once in 2% FBS PBS and treated with a second RBC lysis step and washed twice with 2% FBS. Cells were seeded at 200 k/well and resuspended in Human FC block for 10 minutes at RT. Cells were spun down and then resuspended in titrated test articles starting at 200 nM 1:4 and incubated for 30 minutes at 4° C. before being washed twice and resuspended in secondary mixture (2*; anti-CCR3 FITC, anti-human AF647, PI, anti-CD16 BV605) and incubated for 30 minutes at 4° C., washed twice, and bound antibodies were detected via flow cytometry (Novocyte).
As shown in FIG. 2A-2C, bivalent, tetravalent, and hexavalent Siglec8-VHH-Fc antibodies B12 (FIG. 2A), D1 (FIG. 2B) and E2 (FIG. 2C) bound to eosinophils. The calculated affinity was similar between the bivalent, tetravalent, and hexavalent hzSiglec8-VHH-Fc antibodies. The observed Bmax was reduced with increasing valency as anticipated, due the fact that the Fc portion of the antibody was detected in this assay and the ratio of Fc regions to anti-Siglec-8 binding domains is inverse to valency. No binding was observed on other granulocyte populations (CD16⁺ CCR3⁻).

T1 sequence (Q9NYZ4 17-499): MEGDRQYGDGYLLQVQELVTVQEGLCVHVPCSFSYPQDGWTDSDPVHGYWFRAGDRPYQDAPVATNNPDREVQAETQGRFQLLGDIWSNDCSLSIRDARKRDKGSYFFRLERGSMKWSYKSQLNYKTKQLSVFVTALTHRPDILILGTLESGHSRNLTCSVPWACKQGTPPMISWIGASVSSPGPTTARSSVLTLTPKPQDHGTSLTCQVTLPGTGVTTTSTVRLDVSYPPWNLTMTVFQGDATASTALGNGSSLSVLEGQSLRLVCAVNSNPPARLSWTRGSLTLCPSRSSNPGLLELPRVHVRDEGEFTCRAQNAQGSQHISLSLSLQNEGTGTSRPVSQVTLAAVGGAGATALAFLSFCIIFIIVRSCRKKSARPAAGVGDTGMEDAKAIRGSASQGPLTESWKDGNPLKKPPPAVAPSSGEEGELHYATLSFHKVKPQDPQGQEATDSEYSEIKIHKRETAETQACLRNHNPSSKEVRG

B1: Siglec8 hzG2v2.1, monomeric VHH-hIgG1 fusion (Fc NNT) (Fc fusion)
chain: EVQLLESGGGEVQPGGSLRLSCAASGSISIFSMYVVAWYRQAPGKEREWVAFIQRGGTANYAESAKGRFTISRDNAKNTVYLQMSSLRAEDTAVYYCNYINSDNEIGGPWGQGTLVTVKP
notes: Monomeric format; not shown: non-dimerizing human IgG1 Fc variant lacking a hinge (Fc NNT)
The Kd is a measure of binding affinity in units of concentration. A high value points to weaker binding. Consider B1, for which the Bmax in test [1] was 3.81e+06 Median (anti-human A647). In test [2], this molecule registered a Kd of 1.57 nM.

B2: Siglec8 hzG2v6.1, monomeric VHH-hIgG1 fusion (Fc NNT) (Fc fusion)
chain: EVQLLESGGGEVQPGGSLRLSCAASGSISIFSMYVVAWYRQAPGKQREWVSFIQRGGTANYAESAKGRFTISRDNAKNTVYLQMSSLRAEDTAVYYCNYINSDNEIGGPWGQGTLVTVKP
notes: as for B1
For the molecule B2, the Bmax in test [1] is 3.63e+06 Median (anti-human A647). In test [2], this molecule showed a Kd of 1.7 nM.

B3: Siglec8 hzG2v11, monomeric VHH-hIgG1 fusion (Fc NNT) (Fc fusion)
chain: EVQLLESGGGEVQPGGSLRLSCAASGSISIFSMYVVAWYRQAPGKEREWVAFIQRGGTANYAESAKGRFTISRDNAKNTVYLQMSSLRAEDTAVYYCNYIQSDNEIGGPWGQGTLVTVKP
notes: as for B1
For the molecule B3, the Bmax in test [1] is 1.47e+06 Median (anti-human A647). Moreover, the Kd in test [2] stood at 0.14 nM.

B4: Siglec8 hzG2v12, monomeric VHH-hIgG1 fusion (Fc NNT) (Fc fusion)
chain: EVQLLESGGGEVQPGGSLRLSCAASGSISIFSMYVVAWYRQAPGKEREWVAFIQRGGTANYAESAKGRFTISRDNAKNTVYLQMSSLRAEDTAVYYCNYISSDNEIGGPWGQGTLVTVKP
notes: as for B1
In the case of B4, the Bmax in test [1] was 1.25e+06 Median (anti-human A647). In test [2], this molecule had a Kd of 0.327 nM.

B5: Siglec8 hzG2v15, monomeric VHH-hIgG1 fusion (Fc NNT) (Fc fusion)
chain: EVQLLESGGGEVQPGGSLRLSCAASGSISIFSYYVVAWYRQAPGKEREWVAFIQRGGTANYAESAKGRFTISRDNAKNTVYLQMSSLRAEDTAVYYCNYINSDNEIGGPWGQGTLVTVKP
notes: as for B1
As to B5, the Bmax in test [1] is 1.4e+06 Median (anti-human A647). In test [2], binding was put at a Kd of 0.175 nM.

B6: Siglec8 hzG2v13, monomeric VHH-hIgG1 fusion (Fc NNT) (Fc fusion)
chain: EVQLLESGGGEVQPGGSLRLSCAASGSISIFSMYVVAWYRQAPGKEREWVAFIQRGGTANYAESAKGRFTISRDNAKNTVYLQMSSLRAEDTAVYYCNYITSDNEIGGPWGQGTLVTVKP
notes: as for B1
Regarding B6, the Bmax in test [1] was 1.06e+06 Median (anti-human A647). The molecule further came in with a Kd in test [2] of 0.138 nM.

B7: Siglec8 hzG2v24, monomeric VHH-hIgG1 fusion (Fc NNT) (Fc fusion)
chain: QVTLKESGGGLVRTGGSLRLSCAASGSISIFSMYVVAWYRQAPGKQREWVAFIQRGGTANYAESAKGRFTISRDNAKNTVYLQMSSLRAEDTAVYYCNYINSDNEIGGPWGQGTLVTVKP
notes: as for B1
As to B7, the Bmax in test [1] is 1.27e+06 Median (anti-human A647). For the same molecule, in test [2], the affinity, expressed as Kd, was 0.181 nM.

B8: Siglec8 hzG2v16, monomeric VHH-hIgG1 fusion (Fc NNT) (Fc fusion)
chain: EVQLLESGGGEVQPGGSLRLSCAASGSISIFSLYVVAWYRQAPGKEREWVAFIQRGGTANYAESAKGRFTISRDNAKNTVYLQMSSLRAEDTAVYYCNYINSDNEIGGPWGQGTLVTVKP
notes: as for B1
As for B8, the Bmax in test [1] was 1.49e+06 Median (anti-human A647). Also, in test [2], binding was characterised by a dissociation constant (Kd) of 0.1 nM.

B9: Siglec8 hzG2v14, monomeric VHH-hIgG1 fusion (Fc NNT) (Fc fusion)
chain: EVQLLESGGGEVQPGGSLRLSCAASGSISIFSMYVVAWYRQAPGKEREWVAFIQRGGTANYAESAKGRFTISRDNAKNTVYLQMSSLRAEDTAVYYCNYINTDNEIGGPWGQGTLVTVKP
notes: as for B1
As to B9, in test [1], the Bmax was 1.35e+06 Median (anti-human A647). In addition, the Kd in test [2] came to 0.164 nM.

B10: Hex-D1, hexavalent Siglec8-VHH-Fc (xELL) (Fc fusion)
chain: QVQLVESGGGLVQPGGSLRLSCAASGSIASIHGMGWYRQAPGKERELVAAIAGEGSTYYADSVKGRFTISRDFAKNTLYLQMNNLKAEDTAMYYCANNDERDDYWGQGTQVTVKPGGSGGSQVQLVESGGGLVQPGGSLRLSCAASGSIASIHGMGWYRQAPGKERELVAAIAGEGSTYYADSVKGRFTISRDFAKNTLYLQMNNLKAEDTAMYYCANNDERDDYWGQGTQVTVKPGGSGGSQVQLVESGGGLVQPGGSLRLSCAASGSIASIHGMGWYRQAPGKERELVAAIAGEGSTYYADSVKGRFTISRDFAKNTLYLQMNNLKAEDTAMYYCANNDERDDYWGQGTQVTVKPGGGGDKTHTCPPCPAPGGPSVFLFPPKPKDTLMISRTPEVTCVVVDVSHEDPEVKFNWYVDGVEVHNAKTKPREEQYNSTYRVVSVLTVLHQDWLNGKEYKCKVSNKALPAPIEKTISKAKGQPREPQVYTLPPSRDELTKNQVSLTCLVKGFYPSDIAVEWESNGQPENNYKTTPPVLDSDGSFFLYSKLTVDKSRWQQGNVFSCSVMHEALHNHYTQKSLSLSPGK
notes: Homodimer through the Fc; also called cx8523
As to B10, the binding result in test [3] is listed as “binds”.

B11: Hex-B12, hexavalent Siglec8-VHH-Fc (xELL) (Fc fusion)
chain: QVQVVESGGGLVQPGGSLRLSCAASGSTSLLNAMAWYRQAPGKERELVAAISSGGGTYYADSVKGRFTISTNNAKNTLYLQMNSLKPEDTAMYYCAPGPNYSDYEEINWGQGTQVTVKPGGSGGSQVQVVESGGGLVQPGGSLRLSCAASGSTSLLNAMAWYRQAPGKERELVAAISSGGGTYYADSVKGRFTISTNNAKNTLYLQMNSLKPEDTAMYYCAPGPNYSDYEEINWGQGTQVTVKPGGSGGSQVQVVESGGGLVQPGGSLRLSCAASGSTSLLNAMAWYRQAPGKERELVAAISSGGGTYYADSVKGRFTISTNNAKNTLYLQMNSLKPEDTAMYYCAPGPNYSDYEEINWGQGTQVTVKPGGGGDKTHTCPPCPAPGGPSVFLFPPKPKDTLMISRTPEVTCVVVDVSHEDPEVKFNWYVDGVEVHNAKTKPREEQYNSTYRVVSVLTVLHQDWLNGKEYKCKVSNKALPAPIEKTISKAKGQPREPQVYTLPPSRDELTKNQVSLTCLVKGFYPSDIAVEWESNGQPENNYKTTPPVLDSDGSFFLYSKLTVDKSRWQQGNVFSCSVMHEALHNHYTQKSLSLSPGK
notes: Homodimer through the Fc; also called cx8466
In the case of B11, the binding result in test [3] was “binds”.

B12: Tet-B12, tetravalent Siglec8-VHH-Fc (xELL) (Fc fusion)
chain: QVQVVESGGGLVQPGGSLRLSCAASGSTSLLNAMAWYRQAPGKERELVAAISSGGGTYYADSVKGRFTISTNNAKNTLYLQMNSLKPEDTAMYYCAPGPNYSDYEEINWGQGTQVTVKPGGSGGSQVQVVESGGGLVQPGGSLRLSCAASGSTSLLNAMAWYRQAPGKERELVAAISSGGGTYYADSVKGRFTISTNNAKNTLYLQMNSLKPEDTAMYYCAPGPNYSDYEEINWGQGTQVTVKPGGGGDKTHTCPPCPAPGGPSVFLFPPKPKDTLMISRTPEVTCVVVDVSHEDPEVKFNWYVDGVEVHNAKTKPREEQYNSTYRVVSVLTVLHQDWLNGKEYKCKVSNKALPAPIEKTISKAKGQPREPQVYTLPPSRDELTKNQVSLTCLVKGFYPSDIAVEWESNGQPENNYKTTPPVLDSDGSFFLYSKLTVDKSRWQQGNVFSCSVMHEALHNHYTQKSLSLSPGK
notes: Homodimer through the Fc; also called cx8467
For the molecule B12, the binding result in test [3] is given as “binds”.

B13: Tet-D1, tetravalent Siglec8-VHH-Fc (xELL) (Fc fusion)
chain: QVQLVESGGGLVQPGGSLRLSCAASGSIASIHGMGWYRQAPGKERELVAAIAGEGSTYYADSVKGRFTISRDFAKNTLYLQMNNLKAEDTAMYYCANNDERDDYWGQGTQVTVKPGGSGGSQVQLVESGGGLVQPGGSLRLSCAASGSIASIHGMGWYRQAPGKERELVAAIAGEGSTYYADSVKGRFTISRDFAKNTLYLQMNNLKAEDTAMYYCANNDERDDYWGQGTQVTVKPGGGGDKTHTCPPCPAPGGPSVFLFPPKPKDTLMISRTPEVTCVVVDVSHEDPEVKFNWYVDGVEVHNAKTKPREEQYNSTYRVVSVLTVLHQDWLNGKEYKCKVSNKALPAPIEKTISKAKGQPREPQVYTLPPSRDELTKNQVSLTCLVKGFYPSDIAVEWESNGQPENNYKTTPPVLDSDGSFFLYSKLTVDKSRWQQGNVFSCSVMHEALHNHYTQKSLSLSPGK
notes: Homodimer through the Fc; also called cx8469
Consider B13, for which the binding result in test [3] is listed as “binds”.
